Values of other authors as cited in paper PMC10178616.

Molecular target: AGR2 (Homo sapiens) (UniProt O95994)

Kd: 8.83 µM
Substance: AGR2 (from UniProt O95994)
